Patent US20150196651A1 (published 2015)
Square brackets hold non-standard residues; d marks the D form. Ends that are not written are not given here. * marks the point of attachment. Palmitoyl = CCCCCCCCCCCCCCCC(=O)*; Myristoyl = CCCCCCCCCCCCCC(=O)*; PheCl2 = dichlorophenylalanine; PheNO2 = nitrophenylalanine; Nle = CCCC[C@H](N)C(=O)O

T1: rat PrRP receptor in RC-4B/C cells (rat, UniProt Q64121 1-370)
T1 construct: whole, on cells; endogenous receptor of RC-4B/C cells (ATCC); also called rat receptor; GPR10 receptor expressed in rat hypophyseal cells
T1 sequence (looked up): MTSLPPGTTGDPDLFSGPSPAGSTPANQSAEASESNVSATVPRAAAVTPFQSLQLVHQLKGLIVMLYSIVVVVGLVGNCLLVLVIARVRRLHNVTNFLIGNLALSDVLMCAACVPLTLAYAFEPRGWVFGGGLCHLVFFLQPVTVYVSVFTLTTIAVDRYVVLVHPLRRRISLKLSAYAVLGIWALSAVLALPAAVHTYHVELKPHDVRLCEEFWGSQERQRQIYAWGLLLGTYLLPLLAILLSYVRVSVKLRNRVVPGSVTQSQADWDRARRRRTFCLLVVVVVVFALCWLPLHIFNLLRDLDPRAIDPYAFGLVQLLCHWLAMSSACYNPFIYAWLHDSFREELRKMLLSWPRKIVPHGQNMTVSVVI

T2: human PrRP receptor GPR10 (human, UniProt P49683 1-370)
T2 construct: whole, on cells; also called GPR10 human receptor transfected in CHO cells; human GPR10 receptor
T2 sequence (looked up): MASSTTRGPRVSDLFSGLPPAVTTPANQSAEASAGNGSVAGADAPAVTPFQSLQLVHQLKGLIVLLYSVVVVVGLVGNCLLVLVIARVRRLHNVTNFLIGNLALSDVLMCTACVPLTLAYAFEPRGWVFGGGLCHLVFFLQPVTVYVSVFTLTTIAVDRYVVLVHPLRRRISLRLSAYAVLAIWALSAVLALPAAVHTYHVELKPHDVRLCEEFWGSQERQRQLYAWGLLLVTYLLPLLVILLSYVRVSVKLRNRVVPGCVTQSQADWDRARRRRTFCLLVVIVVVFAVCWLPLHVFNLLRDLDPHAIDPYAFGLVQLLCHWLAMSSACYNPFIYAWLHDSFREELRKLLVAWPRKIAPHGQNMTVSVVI


target: T1, rat PrRP receptor in RC-4B/C cells; experiment: competition with 125I-rat PrRP31, RC-4B/C cells
Method in brief: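 Incubation 60 min at room temperature; cells solubilized in 0.1 mol/l NaOH and bound radioactivity γ-counted. Run in duplicate, repeated at least three times.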

Binder | % of PrRP31 | Ki
Palmitoyl-SRAHQHS[Nle]ETRTPDINPAWYTGRGIRPVGR[PheCl2]-NH2 [analog no. 15] | 379% | 1.3 nM
Myristoyl-SRAHQHS[Nle]ETRTPDINPAWYTGRGIRPVGR[PheNO2]-NH2 [analog no. 17] | 250% | 1.97 nM
Palmitoyl-SRAHQHS[Nle]ETRTPDINPAWYTGRGIRPVGR[PheNO2]-NH2 [analog no. 18] | 850% | 0.58 nM

Other lines, results leading:

% of PrRP31 | Ki | Binder
4.6% | 123 nM | Myristoyl-SHQRPADTHWYPRG[Nle]FPTIGRITARNGEVSR (scrambled peptide; also called 20 scram) [analog no. 20]
2.5% | 19.9 nM | SRAHQHS[Nle]ETRTPDINPAWYTGRGIRPVGR[PheNO2]-NH2 [analog no. 16]

target: T2, human PrRP receptor GPR10; experiment: competition with 125I-human PrRP31, CHO cells with human GPR10

Binder | % of PrRP31 | Ki
Palmitoyl-SRAHQHS[Nle]ETRTPDINPAWYTGRGIRPVGR[PheCl2]-NH2 [analog no. 15] | 370% | 1.05 nM
Myristoyl-SRAHQHS[Nle]ETRTPDINPAWYTGRGIRPVGR[PheNO2]-NH2 [analog no. 17] | 245% | 1.59 nM
Palmitoyl-SRAHQHS[Nle]ETRTPDINPAWYTGRGIRPVGR[PheNO2]-NH2 [analog no. 18] | 505% | 0.77 nM

More lines, now with the values ahead:

% of PrRP31 | Ki | Binder
1.5% | 262 nM | Myristoyl-SHQRPADTHWYPRG[Nle]FPTIGRITARNGEVSR (scrambled peptide; also called 20 scram) [analog no. 20]
81% | 4.8 nM | SRAHQHS[Nle]ETRTPDINPAWYTGRGIRPVGR[PheNO2]-NH2 [analog no. 16]
